Assay in all cases: cell-based or functional assay
Assay [1] has as its target r-caspase-3 (His)6 (human) (UniProt P42574).
For assay [2], the target named is affinity purified membrane derived caspase-3 from 697 cell heavy membranes (human) (UniProt P42574).
The target of assay [3] is 697-neo HM (spontaneous activity) caspase (human) (UniProt P42574).
The target of assay [4] is T1, 697-neo HM (caspase-1 treated) caspase (human) (UniProt P42574).
T1 sequence 1: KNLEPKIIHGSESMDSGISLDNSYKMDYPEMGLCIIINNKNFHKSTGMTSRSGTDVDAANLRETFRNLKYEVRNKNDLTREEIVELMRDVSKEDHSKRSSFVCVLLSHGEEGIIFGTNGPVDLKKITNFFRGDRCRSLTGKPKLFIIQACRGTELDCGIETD
T1 sequence 2: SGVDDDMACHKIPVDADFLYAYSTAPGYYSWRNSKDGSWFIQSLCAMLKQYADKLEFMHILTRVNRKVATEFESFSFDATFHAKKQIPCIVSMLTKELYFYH

Assay [5] addresses T2, 697 Bcl-2 HM (caspase-1 treated) caspase (human) (UniProt P42574).
T2 sequence 1: T1 sequence 1
T2 sequence 2: T1 sequence 2

Some results are limits rather than exact numbers.

For the substance “Protein p35 (early p35 protein from Autographa californica nuclear polyhedrosis virus) (from UniProt P08160 1-299)”, the IC50, inhibition of DEVD-AMC cleavage activity in assay [1] was 0.041 nM; in assay [2] it was 0.074 nM.

For the substance YVAD-ald (peptide), the IC50, inhibition of DEVD-amc cleavage in assay [3], in assay [4] and in assay [5] was above 10000 nM throughout.

For the origin of these results see patent publication US20020197702A1.
